Source: paper PMC6158681

Biological target: SpyCatcher-mi3 (Streptococcus pyogenes | Thermotoga maritima)

SpyTag-MBP
% conjugation: 91%
